Results on five molecules are retold here after patent US20260078197A1 (BIOCYTOGEN PHARMACEUTICALS BEIJING, published 2026).

Where a chain is given by its changes, count along the chain named. In names and notes the source's numbering stands.

T1: His-tagged monkey TFR1 protein (monkey (Macaca fascicularis))
T1 construct: Bought protein; The order of the tag and the receptor part is not known; also called fasTFR1-His; ACROBiosystems Cat #: TFR-C524a; not shown: His tag
T1 chain: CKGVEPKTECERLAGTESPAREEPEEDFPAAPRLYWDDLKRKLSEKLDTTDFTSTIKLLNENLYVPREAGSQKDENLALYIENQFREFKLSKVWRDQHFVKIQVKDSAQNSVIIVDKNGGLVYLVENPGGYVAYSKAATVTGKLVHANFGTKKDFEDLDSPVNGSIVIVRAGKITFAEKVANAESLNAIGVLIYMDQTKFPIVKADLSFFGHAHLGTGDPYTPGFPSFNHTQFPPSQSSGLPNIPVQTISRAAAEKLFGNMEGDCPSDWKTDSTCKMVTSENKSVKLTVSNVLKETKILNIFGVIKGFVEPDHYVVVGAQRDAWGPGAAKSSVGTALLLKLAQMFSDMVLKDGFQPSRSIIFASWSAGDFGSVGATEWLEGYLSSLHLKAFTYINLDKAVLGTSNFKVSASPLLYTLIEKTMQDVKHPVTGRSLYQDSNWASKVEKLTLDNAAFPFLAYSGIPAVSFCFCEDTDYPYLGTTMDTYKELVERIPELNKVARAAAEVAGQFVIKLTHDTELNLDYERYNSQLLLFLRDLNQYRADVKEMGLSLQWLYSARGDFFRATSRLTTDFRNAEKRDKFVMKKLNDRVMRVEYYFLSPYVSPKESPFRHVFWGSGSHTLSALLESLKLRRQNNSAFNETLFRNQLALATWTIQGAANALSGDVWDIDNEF

T2: Macaca fascicularis (crab-eating macaque) TFR1 expressed on CHO-S cells (Macaca fascicularis (crab-eating …))
T2 construct: CHO-S cells transfected with a vector expressing fasTFR1; also called fasTFR1; CHO-S-fasTFR1 cells
T2 chain: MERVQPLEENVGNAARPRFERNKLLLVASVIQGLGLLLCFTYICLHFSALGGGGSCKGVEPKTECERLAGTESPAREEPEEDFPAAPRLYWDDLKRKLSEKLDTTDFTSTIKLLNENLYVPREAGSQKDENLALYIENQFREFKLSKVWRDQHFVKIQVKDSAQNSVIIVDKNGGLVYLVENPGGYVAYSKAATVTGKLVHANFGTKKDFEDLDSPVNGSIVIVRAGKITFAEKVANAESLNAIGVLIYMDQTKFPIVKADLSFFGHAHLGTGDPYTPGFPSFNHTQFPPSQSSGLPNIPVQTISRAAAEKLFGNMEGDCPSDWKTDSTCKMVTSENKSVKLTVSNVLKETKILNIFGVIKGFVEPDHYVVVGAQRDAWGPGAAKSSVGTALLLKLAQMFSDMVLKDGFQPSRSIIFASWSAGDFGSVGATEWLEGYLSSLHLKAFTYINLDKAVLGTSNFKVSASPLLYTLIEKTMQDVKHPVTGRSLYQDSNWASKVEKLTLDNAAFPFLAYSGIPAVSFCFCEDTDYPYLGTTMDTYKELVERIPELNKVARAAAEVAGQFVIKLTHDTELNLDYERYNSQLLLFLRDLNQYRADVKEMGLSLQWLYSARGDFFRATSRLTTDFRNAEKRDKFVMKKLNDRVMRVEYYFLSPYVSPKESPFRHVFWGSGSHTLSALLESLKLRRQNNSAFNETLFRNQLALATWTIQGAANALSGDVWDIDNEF

B1: 24A1 (antibody, human IgG1, V domains shown)
VH: EVQLVESGGGLVQPGGSLRLTCAASGFTFSSYAMSWVRQAPGKGLERVSEISGSGSSTNYADSVKGRFTISRDNSKNTLYLQMNSLRAEDTAVYYCAKDDSSGWAFNIWDQGTVVTVSS
notes: Heavy-chain antibody without light chain; also called anti-TFR1 antibody 24A1
B2: 24G5 (antibody, human IgG1, V domains shown)
VH: B1 VH with E1Q, V2L, V5Q, Y32F, G53D, S56G, S57N, N59Y
notes: Heavy-chain antibody without light chain; also called anti-TFR1 antibody 24G5
B3: 23B8 (antibody, V domains shown)
VH: QVTLKESGGGLVKPGGSLRLSCAASGFPFSNAWMNWVRQAPGKGLEWVGHIKSKTDGGTTDYAAPVKGRFTISRDDSKNMVFLQMNSLKTEDTAVYYCTTDRAYCGGDCSHYYYHDLDVWGQGTTVTVSS
notes: Heavy-chain antibody without light chain; also called anti-TFR1 antibody 23B8
B4: 24C9 (antibody, human IgG1, V domains shown)
VH: EVQLVQSGGGVVQPGRSLRLSCAASGFTLSSYGMYWVRQAPGKGREWVAFIRFDESKKYYADSVKGRFTISRDNSKNTLYLQMNSLRAEDTAVYYCARDGEGGYCTNGVCHGLDVWGQGTTVTVSS
notes: Heavy-chain antibody without light chain; also called anti-TFR1 antibody 24C9
B5: JR141-N (antibody, V domains shown)
VH: EVQLVQSGAEVKKPGESLKISCKGSGYSFTNYWLGWVRQMPGKGLEWMGDIYPGGDYPTYSEKFKVQVTISADKSISTAYLQWSSLKASDTAMYYCARSGNYDEVAYWGQGTLVTVSS
VL: DIVMTQTPLSLSVTPGQPASISCRSSQSLVHSNGNTYLHWYLQKPGQSPQLLIYKVSNRFSGVPDRFSGSGSGTDFTLKISRVEAEDVGVYYCSQSTHVPWTFGQGTKVEIK
notes: also called positive control; JR141 VH and VL on human IgG1 N297A

For the first assay, the target named is T1, His-tagged monkey TFR1 protein. Put plainly: SPR, Biacore 8K; antibody captured on Protein A chip, fasTFR1-His as analyte; 1:1 Langmuir fit. The protocol:
(§1) Purified anti-TFR1 antibodies was captured on the Protein A chip (Series S Sensor Chip Protein A) for the detection. Purified anti-TFR1 antibodies (1 μg/mL) was loaded at 10 μL/min to bind to hTFR1-His and fasTFR1-His (200 nM). The flow rate was 30 μL/min. The binding and dissociation time were set to 180 seconds and 600 seconds, respectively. The chip was regenerated after the last injection of each titration with a glycine solution (pH 2.0) at […] for 30 seconds.
(§2) As a person of ordinary skill in the art would understand, the same method with appropriate adjustments for parameters (e.g., antibody concentration) was performed for each tested antibody.
Broadly, the Kd is the free concentration of one partner at which half of the binding sites on the other are occupied at equilibrium, for simple one-to-one binding. What is called koff is a measure of how fast the partners let go of each other. By kon is commonly meant the rate constant with which the complex forms. In turn, B1 returned a Kd of 2.32 nM, a koff of 0.000101 s⁻¹ and an association rate constant (kon) of 43600 M⁻¹ s⁻¹.
Taken in the same sequence, the figures for B2 were 1.39 nM, 8.79e-05 s⁻¹ and 63300 M⁻¹ s⁻¹.
For B3, the Kd was 19.5 nM, the dissociation rate constant (koff) was 0.00799 s⁻¹ and the kon was 410000 M⁻¹ s⁻¹.

In the next assay the target is T3, human TFR1 expressed on CHO-S cells (human, UniProt P02786 1-760).
T3 construct: CHO-S cells transfected with a vector expressing human TFR1; also called hTFR1; CHO-S-hTFR1 cells
T3 sequence (P02786 whole entry): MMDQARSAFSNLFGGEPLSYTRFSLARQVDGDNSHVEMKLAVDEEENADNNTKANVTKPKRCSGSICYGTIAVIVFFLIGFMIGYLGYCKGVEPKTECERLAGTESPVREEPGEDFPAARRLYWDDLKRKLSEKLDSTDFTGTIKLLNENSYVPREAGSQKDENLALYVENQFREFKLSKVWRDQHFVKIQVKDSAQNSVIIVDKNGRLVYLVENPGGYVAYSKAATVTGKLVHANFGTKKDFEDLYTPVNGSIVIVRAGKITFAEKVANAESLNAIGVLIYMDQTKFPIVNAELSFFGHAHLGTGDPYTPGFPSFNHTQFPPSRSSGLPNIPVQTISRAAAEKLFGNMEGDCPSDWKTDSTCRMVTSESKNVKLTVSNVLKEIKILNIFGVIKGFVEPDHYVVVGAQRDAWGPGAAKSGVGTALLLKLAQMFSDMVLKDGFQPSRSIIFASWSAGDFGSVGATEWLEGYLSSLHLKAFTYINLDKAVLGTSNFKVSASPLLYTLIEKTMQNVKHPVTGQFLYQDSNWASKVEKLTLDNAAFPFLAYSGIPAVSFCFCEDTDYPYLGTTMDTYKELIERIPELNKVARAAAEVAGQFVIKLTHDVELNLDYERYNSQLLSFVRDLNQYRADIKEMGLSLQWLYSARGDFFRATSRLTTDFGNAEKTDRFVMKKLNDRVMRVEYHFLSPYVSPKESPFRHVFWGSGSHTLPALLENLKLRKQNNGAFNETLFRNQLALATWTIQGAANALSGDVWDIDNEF
In words: flow cytometry on CHO-S-hTFR1 cells; anti-hIgG-Fc Alexa Fluor 647 secondary. The protocol:
(§3) CHO-S-hTFR1 cells or CHO-S-fasTFR1 cells were transferred to a 96-well plate at a density of 10⁵ cells/well respectively. Serially diluted sample anti-TFR1 antibodies were added to the 96-well plate, and incubated at 4° C. for 30 minutes. PBS was used as a negative control (NC).
For orientation: Flow cytometry measures light scatter and fluorescence of single cells or particles in a stream.
Take B4: the “Percentage of Positive Cells” value was determined as 45.8%.
The same measure, in the same setting: as for B5, the figure is 45%; as for B1, 56.4%.
B2: the “Percentage of Positive Cells” value was 54.3%.
The same measure, in the same setting: then B3, with 38.8%.

In the next assay the target is T4, His-tagged human TFR1 (transferrin receptor 1) protein (human, UniProt P02786 89-760).
T4 construct: Bought protein; The order of the tag and the receptor part is not known; also called hTFR1-His; ACROBiosystems Cat #: CD1-H5243; not shown: His tag
T4 sequence (P02786 89-760 limits assumed): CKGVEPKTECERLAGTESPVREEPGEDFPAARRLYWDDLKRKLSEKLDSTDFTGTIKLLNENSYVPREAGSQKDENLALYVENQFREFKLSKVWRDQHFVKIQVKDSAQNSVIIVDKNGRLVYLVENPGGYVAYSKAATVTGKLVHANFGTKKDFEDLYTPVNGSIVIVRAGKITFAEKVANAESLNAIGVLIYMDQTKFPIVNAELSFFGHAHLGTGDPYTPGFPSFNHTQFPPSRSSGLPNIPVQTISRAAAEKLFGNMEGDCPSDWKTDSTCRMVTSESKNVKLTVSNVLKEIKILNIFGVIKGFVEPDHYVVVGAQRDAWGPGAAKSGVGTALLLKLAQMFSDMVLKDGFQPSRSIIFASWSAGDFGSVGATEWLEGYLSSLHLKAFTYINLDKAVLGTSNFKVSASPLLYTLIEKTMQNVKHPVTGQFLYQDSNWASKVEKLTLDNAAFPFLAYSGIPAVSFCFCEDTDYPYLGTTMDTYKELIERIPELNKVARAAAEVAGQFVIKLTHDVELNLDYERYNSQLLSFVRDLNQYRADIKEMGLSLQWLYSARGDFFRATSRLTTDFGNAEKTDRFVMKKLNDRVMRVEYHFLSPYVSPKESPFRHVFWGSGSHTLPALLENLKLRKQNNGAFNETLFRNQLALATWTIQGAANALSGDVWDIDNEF
Put plainly: SPR, Biacore 8K; antibody captured on Protein A chip, hTFR1-His as analyte; 1:1 Langmuir fit. The protocol:
as §1, §2
The molecule B4 displayed a Kd of 14.3 nM, an off-rate constant (koff) of 0.000383 s⁻¹ and an on-rate constant (kon) of 26800 M⁻¹ s⁻¹.
B1: the affinity, expressed as Kd, was 2.93 nM; the off-rate constant (koff) was 7.68e-05 s⁻¹; the on-rate (kon) turned out to be 26200 M⁻¹ s⁻¹.
Taken in the same sequence, the figures for B2 were 2.05 nM, 8.68e-05 s⁻¹ and 42400 M⁻¹ s⁻¹.
Taken in the same sequence, the figures for B3 were 8.73 nM, 0.000132 s⁻¹ and 15100 M⁻¹ s⁻¹.

The next assay has as its target T4, His-tagged human TFR1 (transferrin …). In words: BLI (Octet) binning; hTFR1-His captured on HIS1K; ratio = binding of analyte 2 / binding of analyte 1; competitor (analyte 1, bound first): 24C9. The protocol: (§4) Relative positions of target protein epitope between a pair of purified anti-TFR1 antibodies were analyzed by Biolayer Interferometry (BLI) using ForteBio Octet system at 30° C. 1×HBS-EP+ buffer (10 mM 4-(2-hydroxyethyl)-1-piperazineethanesulfonic acid (HEPES), 150 mM NaCl, 3 mM ethylenediaminetetraacetic acid (EDTA) and 0.05% P20, pH7.4) diluted from HBS-EP+ buffer (10×) was used as the running buffer throughout the experiment. About 10 μg/mL of hTFR1-His protein was captured by HIS1K (Anti-Penta-HIS) for 200 seconds, and 200 nM of antibody (analyte 1) was injected at a flow rate of 30 μL/min to bind the ligand. Another antibody (analyte 2) was injected under the same conditions to determine whether the binding of different antibodies interfered with each other. The binding time was 300 seconds for each antibody.
(§5) The binding value of each antibody was obtained using Data Analysis HT 12.0. To quantify the interference of one antibody binding to another, a binding ratio was calculated to compare each pair of antibodies. The binding ratio is defined as the binding value of the second antibody (analyte 2), divided by the binding value of the first antibody (analyte 1).
For B4, the binding ratio amounted to 0.
Same read-out and setting: as for B5, the figure is 1.1.
Regarding B1, the binding ratio is 0.1.
As to B2, the binding ratio stood at 0.
Same read-out and setting: then B3, with 1.4.

Another assay has the same target. In words: BLI (Octet) binning; hTFR1-His captured on HIS1K; ratio = binding of analyte 2 / binding of analyte 1; competitor (analyte 1, bound first): 24G5. The protocol:
as §4, §5
As for B4, the binding ratio was 0.2.
For B5, the binding ratio came out at 0.
Same read-out and setting: as for B1, the figure is 0.1.
The same measure, in the same setting: then B2, with 0; and B3, with 0.3.

For a further assay the target is unchanged. Put plainly: BLI (Octet) binning; hTFR1-His captured on HIS1K; ratio = binding of analyte 2 / binding of analyte 1; competitor (analyte 1, bound first): 23B8. The protocol:
as §4, §5
(In general: In BLI a coated tip is dipped into the sample, and binding shifts an interference pattern.)
Regarding B4, the binding ratio was determined as 0.6.
In the case of B5, the binding ratio is 0.7.
Same read-out and setting: as for B1, the figure is 0.
On to B2, for which the binding ratio was determined as 0.
Turning to B3, the binding ratio was determined as 0.1.

The target of the next assay is T2, Macaca fascicularis (crab-eating …). Put plainly: flow cytometry on CHO-S-fasTFR1 cells; anti-hIgG-Fc Alexa Fluor 647 secondary. The protocol:
as §3
B5: the “Percentage of Positive Cells” value amounted to 37.2%.
On the same count and under the same terms, as for B1, the figure is 50.9%.
Turning to B2, the “Percentage of Positive Cells” value stood at 51.2%.
B3: the “Percentage of Positive Cells” value was 39.6%.

In a further assay the target is T4, His-tagged human TFR1 (transferrin …). Put plainly: BLI (Octet) binning; hTFR1-His captured on HIS1K; ratio = binding of analyte 2 / binding of analyte 1; competitor (analyte 1, bound first): JR141-N. The protocol:
as §4, §5
With B4, the binding ratio turned out to be 0.8.
Take B5: the binding ratio is 0.
Still for that read-out and setting: as for B1, the figure is 0.3; as for B2, 0.2; as for B3, 1.1.

For another assay the target is unchanged. Put plainly: BLI (Octet) binning; hTFR1-His captured on HIS1K; ratio = binding of analyte 2 / binding of analyte 1; competitor (analyte 1, bound first): 24A1. The protocol: as §4, §5
B4: the binding ratio amounted to 0.1.
On to B5, for which the binding ratio amounted to 0.
Regarding B1, the binding ratio is 0.1.
Still for that read-out and setting: as for B2, the figure is 0; as for B3, 0.2.
